Reference: the supplement of paper PMC6757056
± gives the standard deviation of the averaged measurements.

B1: library; a variant is named by its letters at N, in order (parent)
chain: GCUGUCACCGGAAUACCAGCAUCGUCUUGAUGCCCUUGGAAGUCCGGUCUGAUGAGUCCNNNNNGGACGAAACAGC

Legend:
theophylline [1] = variants of: B1; assay: FACS-Seq fitted mean relative fluorescence mCherry/BFP without ligand (log10 relative fluorescence); higher = higher reporter protein expression; details: HEK293T, ligand present: no
Protocol: (§1)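 Hammerhead (sTRSV) ribozyme switch libraries with a ligand aptamer grafted on stem I and a randomized N4-6 loop II, cloned into the 3' UTR of mCherry and transiently transfected into HEK293T cells; RNA-Seq 72 h post transfection with ligand added 1 h before transfection; RNA read count / plasmid DNA read count normalized to the non-cleaving sTRSVctl (x100), log10; sequences with >100 DNA reads. FACS-Seq: lentiviral library sorted into 6 bins after 48 h ligand, log-normal fit mean of mCherry/BFP scaled to controls. Printed sequences are partial switch sequences.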

theophylline [2] = variants of: B1; assay: normalized RNA/DNA level with ligand (relative to sTRSVctl = 100) (log10 (% of sTRSVctl)); higher = less ribozyme self-cleavage, higher mRNA level; details: ligand concentration (+) RNA-Seq: 5 mM, HEK293T, reporter: mCherry (pCS4076), ligand present: yes
Protocol: as §1

theophylline [3] = variants of: B1; assay: normalized RNA/DNA level without ligand (relative to sTRSVctl = 100) (log10 (% of sTRSVctl)); higher = less ribozyme self-cleavage, higher mRNA level; details: HEK293T, reporter: mCherry (pCS4076), ligand present: no
Protocol: as §1

theophylline [4] = variants of: B1; assay: FACS-Seq fitted mean relative fluorescence mCherry/BFP with ligand (log10 relative fluorescence); ligand concentration (+) FACS-Seq: 1 mM; higher = higher reporter protein expression; details: HEK293T, ligand present: yes
Protocol: as §1

Row | Variant | FACS-Seq fitted mean (log10) (theophylline [1]) | normalized RNA/DNA level with ligand (log10) (theophylline [2]) | normalized RNA/DNA level without ligand (log10) (theophylline [3]) | FACS-Seq fitted mean (log10) (theophylline [4])
1 | AGACG | 0.74 ± 0.1 | 2.01 ± 0.082 | 1.89 ± 0.021 | 0.863 ± 0.018
2 | UUCCG | 0.818 ± 0.089 | 2.02 ± 0.032 | 2.017 ± 0.01 | 0.751 ± 0.086
3 | UUCCC | 1.02 ± 0.027 | 1.97 ± 0.04 | 1.99 ± 0.031 | 0.9913 ± 0.0095
4 | UUCUU | 0.641 ± 0.06 | 2.03 ± 0.11 | 1.99 ± 0.057 | 0.58 ± 0.037
5 | ACAAU | 0.476 ± 0.2 | 1.99 ± 0.077 | 1.75 ± 0.096 | 0.44 ± 0.037
6 | CACUA | 0.228 ± 0.023 | 1.99 ± 0.058 | 1.44 ± 0.063 | 0.437 ± 0.048
7 | UCAAG | 0.7373 ± 0.0072 | 2.034 ± 0.0095 | 1.79 ± 0.16 | 0.974 ± 0.053
8 | UCAAC | 0.851 ± 0.1 | 1.89 ± 0.03 | 1.79 ± 0.049 | 0.879 ± 0.062
9 | UCAAA | -0.0221 ± 0.095 | 1.97 ± 0.042 | 1.3 ± 0.091 | 0.459 ± 0.023
10 | UAGAG | 0.823 ± 0.13 | 1.94 ± 0.063 | 1.73 ± 0.093 | 0.842 ± 0.013
11 | UAGAU | 0.687 ± 0.045 | 2.02 ± 0.036 | 1.8244 ± 0.0014 | 0.828 ± 0.09
12 | UAGAC | 0.814 ± 0.036 | 1.91 ± 0.03 | 1.91 ± 0.09 | 0.723 ± 0.008
13 | CGUUU | 0.252 ± 0.084 | 2.06 ± 0.11 | 1.53 ± 0.077 | 0.945 ± 0.041
14 | CGUUC | 0.959 ± 0.048 | 1.8643 ± 0.00065 | 1.75 ± 0.07 | 0.949 ± 0.067
15 | UUGAC | 0.872 ± 0.033 | 2.05 ± 0.042 | 1.93 ± 0.075 | 0.849 ± 0.085
16 | UUGAU | 0.68 ± 0.041 | 2.06 ± 0.1 | 1.82 ± 0.044 | 0.708 ± 0.03
17 | CUUUC | 1.07 ± 0.048 | 2.07 ± 0.067 | 2 ± 0.092 | 0.998 ± 0.19
18 | AAAUA | 0.6481 ± 0.0057 | 1.99 ± 0.038 | 1.62 ± 0.16 | 0.806 ± 0.062
19 | GAGCC | 0.935 ± 0.11 | 1.953 ± 0.015 | 1.849 ± 0.013 | 0.918 ± 0.019
20 | GAAAG | 1.046 ± 0.0068 | 1.96 ± 0.022 | 1.66 ± 0.044 | 1.08 ± 0.14
21 | UAUAG | 0.9651 ± 0.0015 | 1.95 ± 0.053 | 1.855 ± 0.015 | 0.896 ± 0.067
22 | AAUUG | 0.229 ± 0.1 | 2.02 ± 0.12 | 1.75 ± 0.15 | 0.292 ± 0.011
23 | ACUUA | 0.5998 ± 0.0045 | 2.05 ± 0.037 | 1.78 ± 0.032 | 0.66 ± 0.015
24 | GAAGA | 0.532 ± 0.0054 | 1.89 ± 0.051 | 1.46 ± 0.36 | 0.761 ± 0.092

Row | Variant | FACS-Seq fitted mean (log10) (theophylline [1]) | normalized RNA/DNA level with ligand (log10) (theophylline [2]) | normalized RNA/DNA level without ligand (log10) (theophylline [3]) | FACS-Seq fitted mean (log10) (theophylline [4])
25 | UACCU | -0.0361 ± 0.0029 | 1.988 ± 0.00013 | 1.99 ± 0.099 | 0.0166 ± 0.074
26 | AGUCA | 0.8 ± 0.087 | 1.98 ± 0.14 | 1.73 ± 0.059 | 0.766 ± 0.027
27 | AUACA | 0.687 ± 0.07 | 1.98 ± 0.021 | 1.85 ± 0.12 | 0.796 ± 0.012
28 | CCCCA | 0.614 ± 0.038 | 2.043 ± 0.0071 | 1.9 ± 0.11 | 0.52 ± 0.035
29 | AAUGA | 0.467 ± 0.024 | 1.964 ± 0.0034 | 1.46 ± 0.08 | 0.691 ± 0.086
30 | ACGGA | 0.425 ± 0.14 | 1.95 ± 0.02 | 1.66 ± 0.073 | 0.602 ± 0.1
31 | AUCAA | 1.02 ± 0.047 | 1.95 ± 0.084 | 1.68 ± 0.12 | 1.15 ± 0.083
32 | AUCAC | 0.845 ± 0.16 | 1.98 ± 0.022 | 1.96 ± 0.068 | 0.786 ± 0.039
33 | CUACU | 0.761 ± 0.11 | 1.96 ± 0.087 | 1.8 ± 0.019 | 0.924 ± 0.034
34 | CUACC | 0.996 ± 0.11 | 1.968 ± 0.015 | 1.96 ± 0.11 | 1.02 ± 0.03
35 | CCUGC | 0.976 ± 0.012 | 2.02 ± 0.034 | 2.09 ± 0.054 | 0.899 ± 0.054
36 | CUUAA | 0.633 ± 0.018 | 1.98 ± 0.15 | 1.61 ± 0.14 | 0.961 ± 0.12
37 | AUCUA | 0.874 ± 0.15 | 1.99 ± 0.087 | 1.89 ± 0.12 | 0.828 ± 0.069
38 | AUAGU | 0.0428 ± 0.058 | 2.04 ± 0.045 | 1.76 ± 0.038 | 0.179 ± 0.18
39 | AUAGG | 0.526 ± 0.084 | 1.994 ± 0.0048 | 1.84 ± 0.068 | 0.441 ± 0.063
40 | AUAGA | 0.592 ± 0.06 | 1.958 ± 0.018 | 1.57 ± 0.15 | 0.972 ± 0.13
41 | UUGUA | 0.431 ± 0.12 | 1.88 ± 0.029 | 1.53 ± 0.21 | 0.555 ± 0.051
42 | UAUGG | 0.926 ± 0.12 | 1.965 ± 0.014 | 1.86 ± 0.12 | 0.992 ± 0.017
43 | AUCGC | 0.925 ± 0.082 | 1.977 ± 0.017 | 1.92 ± 0.11 | 0.889 ± 0.11
44 | CAUUA | 0.275 ± 0.06 | 1.851 ± 0.011 | 1.22 ± 0.14 | 0.761 ± 0.12
45 | CCAAC | 0.72 ± 0.09 | 1.952 ± 0.012 | 1.92 ± 0.069 | 0.767 ± 0.018
46 | CCAAA | 0.24 ± 0.12 | 1.97 ± 0.051 | 1.48 ± 0.06 | 0.619 ± 0.23
47 | UCCGU | 0.694 ± 0.021 | 2.029 ± 0.013 | 2.03 ± 0.14 | 0.619 ± 0.023
48 | CUCCC | 0.836 ± 0.04 | 2.05 ± 0.12 | 2 ± 0.14 | 0.811 ± 0.012

Row | Variant | FACS-Seq fitted mean (log10) (theophylline [1]) | normalized RNA/DNA level with ligand (log10) (theophylline [2]) | normalized RNA/DNA level without ligand (log10) (theophylline [3]) | FACS-Seq fitted mean (log10) (theophylline [4])
49 | UCAGU | 0.741 ± 0.036 | 2.011 ± 0.018 | 1.875 ± 0.018 | 0.752 ± 0.097
50 | CAACA | 0.729 ± 0.046 | 1.98 ± 0.018 | 1.53 ± 0.0043 | 0.886 ± 0.058
51 | CGCGA | 0.995 ± 0.15 | 1.97 ± 0.12 | 1.767 ± 0.014 | 0.923 ± 0.055
52 | UCACU | 0.354 ± 0.029 | 2.003 ± 0.0094 | 1.85 ± 0.092 | 0.438 ± 0.015
53 | CAGUC | 0.691 ± 0.085 | 1.94 ± 0.086 | 1.86 ± 0.14 | 0.68 ± 0.13
54 | CAGUU | 0.491 ± 0.036 | 2.06 ± 0.055 | 1.6287 ± 0.00046 | 0.76 ± 0.037
55 | UGAGC | 1.21 ± 0.082 | 1.9256 ± 8.8e-05 | 1.98 ± 0.13 | 1.24 ± 0.12
56 | UGACG | 0.444 ± 0.13 | 1.977 ± 0.0053 | 1.89 ± 0.031 | 0.53 ± 0.076
57 | GCCAU | 0.669 ± 0.019 | 1.99 ± 0.077 | 1.88 ± 0.12 | 0.779 ± 0.05
58 | CGCAU | 0.678 ± 0.078 | 1.99 ± 0.018 | 1.68 ± 0.14 | 0.776 ± 0.017
59 | CGCAC | 0.436 ± 0.065 | 2.01 ± 0.17 | 1.9 ± 0.14 | 0.521 ± 0.017
60 | GUUGU | 0.526 ± 0.054 | 1.93 ± 0.19 | 1.84 ± 0.058 | 0.701 ± 0.16
61 | UCCCC | 1.11 ± 0.13 | 2.005 ± 0.019 | 2.01 ± 0.053 | 1.06 ± 0.032
62 | UUAAC | 0.885 ± 0.033 | 1.946 ± 0.0047 | 1.93 ± 0.042 | 0.858 ± 0.072
63 | AUUAC | 1.05 ± 0.17 | 1.99 ± 0.021 | 1.96 ± 0.12 | 0.926 ± 0.096
64 | AUUAA | 0.68 ± 0.04 | 1.94 ± 0.11 | 1.74 ± 0.099 | 0.832 ± 0.041
65 | AGCUA | 0.662 ± 0.064 | 2.03 ± 0.037 | 1.76 ± 0.044 | 0.7922 ± 0.0018
66 | UGCCG | 1.06 ± 0.058 | 2.04 ± 0.043 | 2.02 ± 0.055 | 0.883 ± 0.027
67 | CGCUA | 0.353 ± 0.072 | 1.87 ± 0.069 | 1.48 ± 0.041 | 0.612 ± 0.076
68 | UCGCU | 0.4314 ± 0.00049 | 2.03 ± 0.11 | 1.891 ± 0.0058 | 0.533 ± 0.055
69 | UCGCA | 0.556 ± 0.006 | 1.96 ± 0.055 | 1.57 ± 0.12 | 0.806 ± 0.091
70 | GAAUU | 0.234 ± 0.038 | 2.02 ± 0.045 | 1.75 ± 0.018 | 0.4307 ± 0.002
71 | GAAUC | 0.7173 ± 0.0037 | 1.962 ± 0.011 | 1.855 ± 0.015 | 0.683 ± 0.059
